The record followed here is US20080025968A1 (YEDA RESEARCH AND DEVELOPMENT, published 2008).

To fix the notation:
B1: RelB, endogenous (other, human, UniProt Q01201 1-579, looked up)
chain: MLRSGPASGPSVPTGRAMPSRRVARPPAAPELGALGSPDLSSLSLAVSRSTDELEIIDEYIKENGFGLDGGQPGPGEGLPRLVSRGAASLSTVTLGPVAPPATPPPWGCPLGRLVSPAPGPGPQPHLVITEQPKQRGMRFRYECEGRSAGSILGESSTEASKTLPAIELRDCGGLREVEVTACLVWKDWPHRVHPHSLVGKDCTDGICRVRLRPHVSPRHSFNNLGIQCVRKKEIEAAIERKIQLGIDPYNAGSLKNHQEVDMNVVRICFQASYRDQQGQMRRMDPVLSEPVYDKKSTNTSELRICRINKESGPCTGGEELYLLCDKVQKEDISVVFSRASWEGRADFSQADVHRQIAIVFKTPPYEDLEIVEPVTVNVFLQRLTDGVCSEPLPFTYLPRDHDSYGVDKKRKRGMPDVLGELNSSDPHGIESKRRKKKPAILDHFLPNHGSGPFLPPSALLPDPDFFSGTVSLPGLEPPGGPDLLDDGFAYDPTAPTLFTMLDLLPPAPPHASAVVCSGGAGAVVGETPGPEPLTLDSYQAPGPGDGGTASLVGSNMFPNHYREAAFGGGLLSPGPEAT
notes: mature

Experiment [1] has as its target T1, NF-κB2/p100, endogenous (human, UniProt Q00653 1-900).
T1 construct: mature
T1 sequence (looked up): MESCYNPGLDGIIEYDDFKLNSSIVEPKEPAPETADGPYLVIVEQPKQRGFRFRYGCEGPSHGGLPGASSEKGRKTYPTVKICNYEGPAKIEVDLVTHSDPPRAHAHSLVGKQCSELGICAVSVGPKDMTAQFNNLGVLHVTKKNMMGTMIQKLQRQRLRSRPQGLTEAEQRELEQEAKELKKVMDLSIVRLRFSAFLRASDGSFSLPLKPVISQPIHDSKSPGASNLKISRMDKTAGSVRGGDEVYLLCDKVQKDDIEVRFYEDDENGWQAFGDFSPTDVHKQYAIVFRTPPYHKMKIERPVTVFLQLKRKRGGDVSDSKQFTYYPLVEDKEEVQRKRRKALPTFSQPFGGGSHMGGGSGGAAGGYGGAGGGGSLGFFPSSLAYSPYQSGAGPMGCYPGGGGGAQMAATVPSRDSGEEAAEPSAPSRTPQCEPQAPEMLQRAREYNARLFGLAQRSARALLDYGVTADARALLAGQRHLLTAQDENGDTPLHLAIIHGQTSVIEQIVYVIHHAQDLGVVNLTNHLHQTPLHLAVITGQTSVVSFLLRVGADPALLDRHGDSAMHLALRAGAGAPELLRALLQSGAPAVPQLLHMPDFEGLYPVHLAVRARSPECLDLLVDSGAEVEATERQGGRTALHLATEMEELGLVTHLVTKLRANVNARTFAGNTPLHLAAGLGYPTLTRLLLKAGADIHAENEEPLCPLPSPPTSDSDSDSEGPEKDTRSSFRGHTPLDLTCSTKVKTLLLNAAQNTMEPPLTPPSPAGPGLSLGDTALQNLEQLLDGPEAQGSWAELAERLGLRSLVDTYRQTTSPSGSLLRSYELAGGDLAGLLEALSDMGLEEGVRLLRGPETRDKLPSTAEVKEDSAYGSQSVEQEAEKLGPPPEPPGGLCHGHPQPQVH
In words: anti-RelB immunoprecipitation from nuclear extracts of Ramos cells, western blot. As for the experimental part: (§1) FIG. 3g is an immunoprecipitation analysis with RelB of various NF-κB proteins from nuclear extracts of the Ramos cells, 15 minutes and 4 hours after the application of TNF or CD70 to the cells. Levels of p100, NS and p52 were detected by western blot analysis.
(§2) For immunoprecipitation of the NF-κB proteins, nuclear extracts from 10-20×10⁶ cells were diluted to achieve the following composition: 0.5% NP-40, 10 mM HEPES pH 7.9, 150 mM NaCl, 1 mM EDTA, 1 mM EGTA, 1 mM dithiothreitol (DTT), 1 mM PMSF, and 1× complete protease inhibitor cocktail. Anti-RelB antibody preadsorbed to protein-A-Sepharose beads (Amersham Biosciences) was incubated with precleared nuclear lysates for 2 hours at 4° C. The immunoprecipitates were analyzed by SDS-PAGE using 4-12% Bis-Tris NuPAGE gels (Invitrogen), and the gels were subjected to western blotting as described above.
Background: Immunoblotting shows a protein as a band on a membrane.

In experiment [2] the target is T2, NIK 624-947 (C-terminal part of NIK), yeast two-hybrid construct (human, UniProt Q99558 624-947).
T2 construct: Yeast two-hybrid construct used in the β-galactosidase assay in SFY526 yeast; also called C-terminally mutant (NIK 624-947); the C-terminal portion of NIK; not shown: Gal4 fusion partner from pGBKT7 or pGADT7
The experiment in a line: yeast two-hybrid, β-galactosidase colour assay in SFY526. As for the experimental part: FIG. 1a illustrates yeast two-hybrid binding assays of NIK to SIVA. The binding of NIK and its C-terminally mutant (NIK 624-947) to the C-terminal part of SIVA (amino acids 123-175 in SIVA1 or 58-110 in SIVA2) or TRAF2, was assessed using transformed SFY526 yeast. The development of a strong color reaction within 1 hour and 3 hours is indicted as ‘++’ and ‘+’, respectively; ‘−’ indicates no color development within 24 h.
A BamHI/XhoI digested NIK insert from the pcNIK vector was subcloned into BamHI/SalI sites of the Gal4 DNA-binding domain vector pGBKT7 (Clontech). A pre-transformed human bone marrow library (HL4053AH, Clontech) was subjected to two-hybrid screening using pGBKT7-NIK as the bait, according to the manufacturer's instructions (Yeast protocol handbook, Clontech—www.clontech.com) Positive clones were identified by quadruple selection and β-galactosidase activity assay. Binding of the SIVA clone to NIK and NIK624-947 was reconfirmed and binding of NIK to TRAF2 was assessed-by a β-galactosidase expression assay using the yeast SFY526 reporter strain (Clontech) and the pGBKT7 and pGADT7 vectors.

For experiment [3], the target named is B1. The experiment in a line: anti-RelB immunoprecipitation from nuclear extracts of Ramos cells, western blot. As for the experimental part: as §1, §2
Experiment [4] addresses T3, p55 TNF receptor, endogenous in Ramos cells (human, UniProt P19438 30-455).
T3 construct: whole, on cells; TNF-receptor complex precipitated as described by Zhang et al., 2000
T3 sequence (looked up): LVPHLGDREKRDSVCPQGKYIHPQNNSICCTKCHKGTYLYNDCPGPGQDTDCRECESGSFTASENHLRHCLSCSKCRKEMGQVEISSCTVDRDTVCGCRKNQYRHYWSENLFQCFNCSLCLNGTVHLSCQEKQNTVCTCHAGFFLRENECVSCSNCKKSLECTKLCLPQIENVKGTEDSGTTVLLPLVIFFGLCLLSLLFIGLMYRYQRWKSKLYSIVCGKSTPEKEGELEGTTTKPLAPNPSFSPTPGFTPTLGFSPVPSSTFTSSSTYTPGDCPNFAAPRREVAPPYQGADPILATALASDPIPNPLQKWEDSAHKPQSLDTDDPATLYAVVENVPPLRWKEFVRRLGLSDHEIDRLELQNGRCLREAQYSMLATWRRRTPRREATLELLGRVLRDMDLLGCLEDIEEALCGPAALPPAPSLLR
In words: western blot of the p55 TNF receptor complex from Ramos cells (FIG. 6a). How it is done:
Transfections, immunoblotting and immunoprecipitations were performed as described in Example 2 and Example 3 of the Examples section. For immunoprecipitation of the CD70/CD27 ligand-receptor complexes from resting PBMC and Ramos cells, cell lysates were prepared as described for the kinase tests aforementioned and incubated for 4 hours at 4° C. with 25 μl of 50% M2-FLAG agarose beads per ml of lysate. The TNF-receptor complex was precipitated as described (Zhang et al., 2000). The signalosome from cell lysates was immunoprecipitated using a 1:1 mixture of two different antibodies against IKK1 (M-280 and H-744, Santa Cruz). Immunoprecipitation was allowed to continue for 2 hours at 4° C., using 10 μg of anti-IKKα antibodies adsorbed to 25 μl of 50% protein-A-Sepharose beads per ml of lysate.

T2 sequence (Q99558 624-947): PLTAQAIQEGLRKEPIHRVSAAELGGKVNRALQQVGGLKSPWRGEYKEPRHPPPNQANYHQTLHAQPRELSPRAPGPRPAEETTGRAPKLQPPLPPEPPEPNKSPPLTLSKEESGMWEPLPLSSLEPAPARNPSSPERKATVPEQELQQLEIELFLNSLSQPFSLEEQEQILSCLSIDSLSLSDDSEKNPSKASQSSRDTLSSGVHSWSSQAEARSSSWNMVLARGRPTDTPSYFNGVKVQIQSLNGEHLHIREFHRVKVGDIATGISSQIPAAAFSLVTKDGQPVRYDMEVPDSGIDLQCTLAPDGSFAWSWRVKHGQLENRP

Consider B1, for which the binding result in experiment [1] is listed as “binds”.

B2: C-terminal part of SIVA (amino acids 123-175 in SIVA1 or 58-110 in SIVA2), yeast two-hybrid clone (other)
chain: GKAVCGQCERALCGQCVRTCWGCGSVACTLCGLVDCSDMYEKVLCTSCAMFET
notes: Clone from a human bone marrow two-hybrid library; also called SIVA clone; C-terminal SIVA fragment; not shown: Gal4 fusion partner of the library clone / pGADT7 or pGBKT7 vector; not specified
For B2, in experiment [2], the binding result was “binds”.

B3: NF-κB2/p52, endogenous (other, human, UniProt Q00653 1-454, looked up)
chain: MESCYNPGLDGIIEYDDFKLNSSIVEPKEPAPETADGPYLVIVEQPKQRGFRFRYGCEGPSHGGLPGASSEKGRKTYPTVKICNYEGPAKIEVDLVTHSDPPRAHAHSLVGKQCSELGICAVSVGPKDMTAQFNNLGVLHVTKKNMMGTMIQKLQRQRLRSRPQGLTEAEQRELEQEAKELKKVMDLSIVRLRFSAFLRASDGSFSLPLKPVISQPIHDSKSPGASNLKISRMDKTAGSVRGGDEVYLLCDKVQKDDIEVRFYEDDENGWQAFGDFSPTDVHKQYAIVFRTPPYHKMKIERPVTVFLQLKRKRGGDVSDSKQFTYYPLVEDKEEVQRKRRKALPTFSQPFGGGSHMGGGSGGAAGGYGGAGGGGSLGFFPSSLAYSPYQSGAGPMGCYPGGGGGAQMAATVPSRDSGEEAAEPSAPSRTPQCEPQAPEMLQRAREYNARLFGLA
As to B3, the binding result in experiment [3] was “binds”.

B4: IκBα, endogenous (other, human, UniProt P25963 1-317, looked up)
chain: MFQAAERPQEWAMEGPRDGLKKERLLDDRHDSGLDSMKDEEYEQMVKELQEIRLEPQEVPRGSEPWKQQLTEDGDSFLHLAIIHEEKALTMEVIRQVKGDLAFLNFQNNLQQTPLHLAVITNQPEIAEALLGAGCDPELRDFRGNTPLHLACEQGCLASVGVLTQSCTTPHLHSILKATNYNGHTCLHLASIHGYLGIVELLVSLGADVNAQEPCNGRTALHLAVDLQNPDLVSLLLKCGADVNRVTYQGYSPYQLTWGRPSTRIQQQLGQLTLENLQMLPESEDEESYDTESEFTEFTEDELPYDDCVFGGQRLTL
notes: mature
In the case of B4, in experiment [4], the binding result was “binds”.
